Measurements from patent EP1870419A2 (Praecis Pharmaceuticals Incorporated, dated 2000).
Square brackets hold non-standard residues; d marks the D form. dPhe(4-F) = N[C@H](Cc1ccc(F)cc1)C(=O)O

Columns and labels:
[1] = target: T1, Aβ1-40 peptide (natural β-amyloid peptide, β-AP1-40) (In the fibril binding assay the peptide stood as aged fibrils (many copies, number not stated). In the nucleation assay [CUT]); assay: cell-based or functional assay
[2] = target: T1, Aβ1-40 peptide (natural β-amyloid …); assay: cell-based or functional assay; remark: listed apart in the source

Binder	Nucleation assay Δlag, 1.25 µM compound [1]	Nucleation assay Δlag, 2.5 µM compound [1]	Nucleation assay Δlag, 5 µM compound [1]	Nucleation assay data (Δlag), 0.3 µM compound [2]	Nucleation assay data (Δlag), 1 µM compound [2]	Nucleation assay data (Δlag), 3 µM compound [2]
{N,N‑dimethyl}-[dA][dF][dF][dV][dL]-NH2 (also: TFA salt) [PPI 913: TFA·N,N-dimethyl-(affvl)-NH2]	1 fold of control lag time	1 fold of control lag time	1 fold of control lag time			
{N,N‑dimethyl}-G[dA][dF][dF][dV][dL]-NH2 (also: TFA salt) [PPI 803: TFA·N,N-dimethyl-(Gaffvl)-NH2]	< 1 fold of control lag time	< 1 fold of control lag time	< 1 fold of control lag time			
{N,N‑diethyl}-[dA][dF][dF][dV][dL]-NH2 (also: TFA salt) [PPI 1006: TFA·N,N-diethyl-(affvl)-NH,]	1 fold of control lag time	1 fold of control lag time	1 fold of control lag time			
H-[dL][dF][dK][dV][dL]-NH2 (also: TFA salt) [PPI 1321: 2TFA·H-(lfkvl)-NH2]				< 1 fold of control lag time	< 1 fold of control lag time	< 1 fold of control lag time
{N‑isopropyl}-G[dA][dF][dF][dV][dL]-NH2 (also: TFA salt) [PPI 970: TFA·N-isopropyl-(Gaffvl)-NH2]	1 fold of control lag time	> 5 fold of control lag time	> 5 fold of control lag time			
{N,N‑diethyl}-G[dA][dF][dF][dV][dL]-NH2 (also: TFA salt) [PPI 1005: TFA·N,N-diethyl-(Gaffvl)-NH2]	1 fold of control lag time	3 fold of control lag time	3 fold of control lag time			
H-[dL][dV][dF][dF][dA]-NMe2 (also: TFA salt) [PPI 993: TFA·H-(lvffa)-dimethylamide]	1 fold of control lag time	1 fold of control lag time	1 fold of control lag time			
{N‑methyl}-G[dA][dF][dF][dV][dL]-NH2 (also: TFA salt) [PPI 968: TFA·N-methyl-(Gaffvl)-NH2]	2 fold of control lag time	> 5 fold of control lag time	> 5 fold of control lag time			
H-[dL][dF][dPhe(4-F)][dV][dL]-NH2 (also: TFA salt) [PPI-1319: TFA·H-(lf-[p-F]f-vl)-NH2]				1 fold of control lag time	> 5 fold of control lag time	> 5 fold of control lag time
